According to patent US20190241671A1 (Merck KGaA, published 2019):
Numbering of substitutions follows the chain as printed.

T1: CD19 antigen on Daudi lymphoma cells (human, UniProt P15391 20-556)
T1 construct: whole, on cells; also called Daudi cells
T1 sequence (looked up): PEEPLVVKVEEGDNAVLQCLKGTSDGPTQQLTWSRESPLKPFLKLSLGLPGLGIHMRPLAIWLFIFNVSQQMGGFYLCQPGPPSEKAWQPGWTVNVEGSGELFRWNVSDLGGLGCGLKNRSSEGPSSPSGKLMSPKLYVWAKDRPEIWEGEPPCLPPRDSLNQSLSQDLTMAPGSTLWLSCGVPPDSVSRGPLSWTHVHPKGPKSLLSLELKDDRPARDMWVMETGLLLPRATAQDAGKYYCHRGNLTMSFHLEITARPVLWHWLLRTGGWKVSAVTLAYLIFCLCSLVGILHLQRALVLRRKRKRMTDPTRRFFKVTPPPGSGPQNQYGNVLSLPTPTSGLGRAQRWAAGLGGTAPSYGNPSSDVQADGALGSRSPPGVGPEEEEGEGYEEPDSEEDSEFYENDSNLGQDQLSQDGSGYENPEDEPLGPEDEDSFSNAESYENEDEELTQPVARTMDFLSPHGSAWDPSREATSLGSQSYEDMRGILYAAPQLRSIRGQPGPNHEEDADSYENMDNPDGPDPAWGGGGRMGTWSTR

B1: B4 VHv2/VKv1 antibody (antibody, V domains shown)
VH: QVQLQQPGAEVVKPGASVRLSCKTSGYTFTSNWMHWVKQRPGQGLEWIGEIDPSDSYTNYNQKFKGKAELTVDKSSSTAYMEVSDLTSEDSAVYYCARGSNPYYYAMDYWGQGTSVTVSS
VL: QIALTQEPAIMSASPGEKVTMTCSASSGVNYMHWYQQKPGTSPKRWIYDTSKLDSGVPARFSGSGSGTSYSLTISSMEAEDAATYYCHQRGSYTFGGGTKLEIK
B2: B4 VHv1/VKv2 antibody (antibody, V domains shown)
VH: B1 VH with K23E, G42D
VL: B1 VL with Q1D, A3V, E7S, I10T, M11L
B3: B4 VHv1/VKv1 antibody (antibody, V domains shown)
VH: B1 VH with K23E, G42D
VL: B1 VL
B4: B4 VHv4/VKv4 antibody (antibody, V domains shown)
VH: B1 VH with Q5E, R19K, L20V, R40T, Q43K, K65D, E69K, S88A, V93T
VL: B1 VL with A3V, E7S, I10T, M11L, V19A, S51D, L53T, D54A
B5: B4 VHv3/VKv4 antibody (antibody, V domains shown)
VH: B1 VH with Q5E, V12K, R19K, L20V, T24A, E69K, S88A
VL: B1 VL with A3V, E7S, I10T, M11L, V19A, S51D, L53T, D54A
B6: B4 VHv4/VKv3 antibody (antibody, V domains shown)
VH: B1 VH with Q5E, R19K, L20V, R40T, Q43K, K65D, E69K, S88A, V93T
VL: B1 VL with A3V, E7S, I10T, M11L, V19A, V29A, D54A, S75E
B7: B4 VHv3/VKv3 antibody (antibody, V domains shown)
VH: B1 VH with Q5E, V12K, R19K, L20V, T24A, E69K, S88A
VL: B1 VL with A3V, E7S, I10T, M11L, V19A, V29A, D54A, S75E
B8: B4 VHv2/VKv2 antibody (antibody, V domains shown)
VH: B1 VH
VL: B1 VL with Q1D, A3V, E7S, I10T, M11L
B9: B4 VH0/VK0 antibody (antibody, V domains shown)
VH: B1 VH with E69K, D85S
VL: B1 VL with A3V, E7S, D54A
notes: Expressed from pdHL12 as intact heavy and light chains; also called parental B4 antibody
B10: B4 VHv6/VKv4 antibody (antibody, V domains shown)
VH: B1 VH with Q5E, R19K, L20V, K65D, E69K, V93T
VL: B1 VL with A3V, E7S, I10T, M11L, V19A, S51D, L53T, D54A
notes: also called 10
B11: B4 VHv5/VKv4 antibody (antibody, V domains shown)
VH: QVQLEQPGAEVKKPGASVKVSCKASGYTFTSNWMHWVRQAPGKGLEWIGEIDPSDSYTNYNQKFDGKAKLTVDKSSSTAYMEVSDLTSEDSATYYCARGSNPYYYAMDYWGQGTSVTVSS
VL: B1 VL with A3V, E7S, I10T, M11L, V19A, S51D, L53T, D54A

Each binder was assayed against T1, CD19 antigen on Daudi lymphoma cells (assay: FACS competition on Daudi cells; unlabeled antibody 100 ng/ml (1x) vs competitor biotin-B4 VH0/VK0 100 ng/ml).
Method: (§1) Briefly, a titration series was prepared of biotin-labeled B4 VH0/VK0 antibody pre-mixed at a final concentration of 100 ng/ml with one of the unlabeled, experimental B4 VHvx/VKvy antibodies at 800 ng/ml, 400 ng/ml, 200 ng/ml, 100 ng/ml, and 50 ng/ml in a PBS/2% serum buffer. As a control, the biotin-labeled antibody was pre-mixed with unlabeled B4 VH0/VK0 antibody at the same concentrations as above (inhibition control) or with buffer only (positive binding control). The combined antibodies were added to Daudi cells for 30 minutes at 4° C. A 1:200 dilution of FITC-labeled streptavidin was added to the cells and the samples were incubated for a further 30 minutes at 4° C. Bound amount of labeled B4 VH0/VK0 antibody was quantitated by FACS analysis, and the results were expressed as “percent inhibition,” relative to the positive binding control. The tested antibodies were B4 VH0/VK0 (C), B4 VHv1/VKv1 (1), B4 VHv2/VKv1 (2), B4 VHv1/VKv2 (3), B4 VHv2/VKv2 (4), B4 VHv3/VKv3 (5), B4 VHv4/VKv3 (6), B4 VHv3/VKv4 (7), B4 VHv4/VKv4 (8), B4 VHv5/VKv4 (9), and B4 VHv6/VKv4 (10).

Row | Binder | % inhibition of labeled B4 binding [%]
1 | B1 | 16
2 | B2 | 20
3 | B3 | 16
4 | B4 | 16
5 | B5 | 20
6 | B6 | 16
7 | B7 | 20
8 | B8 | 16
9 | B9 | 28

The binders below were run against T1, CD19 antigen on Daudi lymphoma cells (assay: FACS competition on Daudi cells; unlabeled antibody 200 ng/ml (2x) vs competitor biotin-B4 VH0/VK0 100 ng/ml).
Method: as §1

Row | Binder | % inhibition of labeled B4 binding [%]
10 | B1 | 28
11 | B2 | 32
12 | B3 | 28
13 | B4 | 32
14 | B5 | 36
15 | B6 | 32
16 | B7 | 36
17 | B8 | 32
18 | B9 | 44

Target: T1, CD19 antigen on Daudi lymphoma cells
Test: FACS competition on Daudi cells; unlabeled antibody 100 ng/ml (1x) vs competitor biotin-B4 VH0/VK0 100 ng/ml
Remark: another data set of the same source
Method: as §1

Row | Binder | % inhibition of labeled B4 binding [%]
19 | B10 | 60
20 | B11 | 57
21 | B9 | 67

The binders below were run against T1, CD19 antigen on Daudi lymphoma cells (assay: FACS competition on Daudi cells; unlabeled antibody 800 ng/ml (8x) vs competitor biotin-B4 VH0/VK0 100 ng/ml).
Method: as §1

Row | Binder | % inhibition of labeled B4 binding [%]
22 | B1 | 56
23 | B2 | 56
24 | B3 | 56
25 | B4 | 60
26 | B5 | 60
27 | B6 | 56
28 | B7 | 60
29 | B8 | 56
30 | B9 | 68

These binders were tested against T1, CD19 antigen on Daudi lymphoma cells (assay: FACS competition on Daudi cells; unlabeled antibody 400 ng/ml (4x) vs competitor biotin-B4 VH0/VK0 100 ng/ml).
Method: as §1

Row | Binder | % inhibition of labeled B4 binding [%]
31 | B1 | 40
32 | B2 | 44
33 | B3 | 44
34 | B4 | 48
35 | B5 | 52
36 | B6 | 44
37 | B7 | 40
38 | B8 | 44
39 | B9 | 56

Each binder was assayed against T1, CD19 antigen on Daudi lymphoma cells (assay: FACS competition on Daudi cells; unlabeled antibody 50 ng/ml (0.5x) vs competitor biotin-B4 VH0/VK0 100 ng/ml).
Method: as §1

Row | Binder | % inhibition of labeled B4 binding [%]
40 | B1 | 8
41 | B2 | 12
42 | B3 | 12
43 | B4 | 12
44 | B5 | 12
45 | B6 | 12
46 | B7 | 12
47 | B8 | 8
48 | B9 | 16

Target: T1, CD19 antigen on Daudi lymphoma cells
Test: FACS competition on Daudi cells; unlabeled antibody 200 ng/ml (2x) vs competitor biotin-B4 VH0/VK0 100 ng/ml
Remark: another data set of the same source
Method: as §1

Row | Binder | % inhibition of labeled B4 binding [%]
49 | B10 | 70
50 | B11 | 70
51 | B9 | 83

Target: T1, CD19 antigen on Daudi lymphoma cells
Test: FACS competition on Daudi cells; unlabeled antibody 400 ng/ml (4x) vs competitor biotin-B4 VH0/VK0 100 ng/ml
Remark: another data set of the same source
Method: as §1

Row | Binder | % inhibition of labeled B4 binding [%]
52 | B10 | 80
53 | B11 | 87
54 | B9 | 90

Target: T1, CD19 antigen on Daudi lymphoma cells
Test: FACS competition on Daudi cells; unlabeled antibody 800 ng/ml (8x) vs competitor biotin-B4 VH0/VK0 100 ng/ml
Remark: another data set of the same source
Method: as §1

Row | Binder | % inhibition of labeled B4 binding [%]
55 | B10 | 87
56 | B11 | 90
57 | B9 | 93

Target: T1, CD19 antigen on Daudi lymphoma cells
Test: FACS competition on Daudi cells; unlabeled antibody 50 ng/ml (0.5x) vs competitor biotin-B4 VH0/VK0 100 ng/ml
Remark: another data set of the same source
Method: as §1

Row | Binder | % inhibition of labeled B4 binding [%]
58 | B10 | 53
59 | B11 | 47
60 | B9 | 50
